The chains are these.
B1: Type 3 secretion system translocon protein SctE (Shigella flexneri), P18011 (parent)
chain: MHNVSTTTTGFPLAKILTSTELGDNTIQAANDAANKLFSLTIADLTANQNINTTNAHSTSNILIPELKAPKSLNASSQLTLLIGNLIQILGEKSLTALTNKITAWKSQQQARQQKNLEFSDKINTLLSETEGLTRDYEKQINKLKNADSKIKDLENKINQIQTRLSELDPESPEKKKLSREEIQLTIKKDAAVKDRTLIEQKTLSIHSKLTDKSMQLEKEIDSFSAFSNTASAEQLSTQQKSLTGLASVTQLMATFIQLVGKNNEESLKNDLALFQSLQESRKTEMERKSDEYAAEVRKAEELNRVMGCVGKILGALLTIVSVVAAAFSGGASLALAAVGLALMVTDAIVQAATGNSFMEQALNPIMKAVIEPLIKLLSDAFTKMLEGLGVDSKKAKMIGSILGAIAGALVLVAAVVLVATVGKQAAAKLAENIGKIIGKTLTDLIPKFLKNFSSQLDDLITNAVARLNKFLGAAGDEVISKQIISTHLNQAVLLGESVNSATQAGGSVASAVFQNSASTNLADLTLSKYQVEQLSKYISEAIEKFGQLQEVIADLLASMSNSQANRTDVAKAILQQTTA

The variants in one experiment derive from B1. As to conditions: with md2l2_human MAD2L2, Q9UI95.
md2l2_human MAD2L2, Q9UI95, sequence (Q9UI95 whole entry): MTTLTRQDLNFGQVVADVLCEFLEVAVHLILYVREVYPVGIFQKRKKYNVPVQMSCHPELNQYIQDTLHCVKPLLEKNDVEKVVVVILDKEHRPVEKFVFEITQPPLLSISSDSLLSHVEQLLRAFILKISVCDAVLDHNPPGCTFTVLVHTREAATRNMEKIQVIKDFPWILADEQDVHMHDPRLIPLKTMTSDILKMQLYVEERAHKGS
With N61A, the “effect of a mutation on the interaction” value is given as “decreasing interaction”.

The variants in another experiment derive from B1. Particulars: with ipgc_shifl ipgC.
On to L67A, for which the “effect of a mutation on the interaction” value is given as “decreasing interaction”.

Source of the values: IntAct's records for PubMed 17719540.
